Reference: patent US20170145090A1

Biological target: Human OSM (in-house, OSMN1-1) (human) (UniProt P13725)
Test: cell-based or functional assay

Sequence of Human OSM (in-house, OSMN1-1) (human) (P13725 26-221 limits assumed): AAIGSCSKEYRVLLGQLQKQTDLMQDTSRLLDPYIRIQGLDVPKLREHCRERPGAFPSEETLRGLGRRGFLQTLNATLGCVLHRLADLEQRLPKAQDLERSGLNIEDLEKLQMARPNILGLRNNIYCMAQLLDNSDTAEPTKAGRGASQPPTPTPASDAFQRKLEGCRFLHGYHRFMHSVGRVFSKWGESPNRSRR

Question: MAB295 (R&D Systems) (antibody) was tested. Which pSTAT3 inhibition EC50 (ng/ml), A375 cells, 5 ng/ml hOSM did it give?
Answer: 72.1 ng/ml
